Measured values taken from patent publication US20210269539A1 (NANJING UMAB BIOPHARMA, published 2021).
Where “and” joins values, the source holds several entries; their conditions need not be identical. Identical values can stand only once. Values belong to the binder of their own block, whether it stands above or below them.

What was measured:
human OX40 on cells [1] = target: T1, human OX40 on cells (human, UniProt P43489 29-277); test: cell-based or functional assay
T1 sequence (looked up): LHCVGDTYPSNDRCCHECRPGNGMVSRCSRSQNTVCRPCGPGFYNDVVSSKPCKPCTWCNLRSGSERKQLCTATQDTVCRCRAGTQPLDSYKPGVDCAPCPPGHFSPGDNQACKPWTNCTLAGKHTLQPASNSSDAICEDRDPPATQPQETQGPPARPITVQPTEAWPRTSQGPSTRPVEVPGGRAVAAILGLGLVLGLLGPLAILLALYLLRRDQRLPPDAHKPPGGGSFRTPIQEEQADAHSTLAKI

human OX40 on cells [2] = target: T1, human OX40 on cells; test: FACS on CHO-hOX40 cells
Protocol: The OX40 antibody gradient was created with PBS, and a stock solution of 10× final concentration was prepared. CHO-hOX40 cells were collected, washed once with PBS, counted, and diluted to a cell suspension of 2×10⁶ cells/ml. 10 μl of OX40 antibody stock solutions were added into 100 μl of cell suspension, and incubated at 4° C. in the dark for 30 min. After washing twice with PBS, a secondary antibody was added and an incubation was carried out at 4° C. for 30 min in the dark. After washing once with PBS, the cells were suspended in 400 μl FACS buffer and measured on the instrument.

mouse OX40 on CHO cells = target: T2, mouse OX40 on CHO cells (mouse, UniProt P47741 20-272); test: FACS on CHO cells expressing mouse OX40
T2 construct: whole, on cells; also called CHO-mOX40
T2 sequence (looked up): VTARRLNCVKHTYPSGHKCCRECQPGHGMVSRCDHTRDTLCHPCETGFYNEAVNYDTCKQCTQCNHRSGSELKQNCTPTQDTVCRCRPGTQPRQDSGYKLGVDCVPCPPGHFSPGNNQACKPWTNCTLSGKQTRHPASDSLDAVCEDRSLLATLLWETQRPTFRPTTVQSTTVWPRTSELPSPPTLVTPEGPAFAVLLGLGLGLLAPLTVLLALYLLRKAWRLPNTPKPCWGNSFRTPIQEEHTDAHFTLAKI

human OX40 protein [3] = target: T3, human OX40 protein (human, UniProt P43489 29-214, limits assumed); test: ELISA, protein coated at 1 µg/mL, goat anti-human IgG HRP
T3 construct: also called human OX antigen protein
T3 sequence (looked up): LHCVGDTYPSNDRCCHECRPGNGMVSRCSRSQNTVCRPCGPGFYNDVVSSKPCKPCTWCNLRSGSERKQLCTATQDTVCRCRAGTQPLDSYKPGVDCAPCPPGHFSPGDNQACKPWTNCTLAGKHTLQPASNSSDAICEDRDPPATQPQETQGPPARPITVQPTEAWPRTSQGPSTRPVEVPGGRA
Protocol: (§1) The next day, it was washed three times with 300 μL PBST (Tween 20: 0.5‰), then blocked with 5% BSA/PBS at 100 μL/well for 2 hours, and shaken at room temperature. After washing 3 times with 300 μL PBST, the gradient dilutions of samples were prepared with PBS, which were added into the 96-well plate at 100 μL/well and shaken at room temperature for 1 hour, and washed 3 times with 300 μL PBST. The secondary antibody goat anti-human IgG HRP solution was prepared, which was added into the 96-well plate at 100 μL/well, and shaken at room temperature for 1 hour. After washing 4 times with 300 μL PBST, TMB was added at 100 μL/well and developed for 20 min. 0.6N H₂SO4 was added at 100 μL/well to stop the development, and OD450 nm was measured.

human OX40 protein [4] = target: T3, human OX40 protein; test: ELISA as in Example 3, human OX40 protein coated
Protocol: as §1
The in vitro binding assay of humanized antibodies and human OX antigen protein was carried out as described in Example 3.

B1: MT01-L2 (antibody, human IgG1, lambda)
heavy: not shown
light: QLVLTQSSSASFSLGASAKLTCTLSSQHSTYIIEWYQQQPLKPPKYVMELKKDGSHSTGEGIPDRFSGSSSGADRYLSISNIQPEDEAIYICGVGNTIKEQFVYVFGGGTKVTVLGQPKANPTVTLFPPSSEELQANKATLVCLISDFYPGAVTVAWKADGSPVKAGVETTKPSKQSNNKYAASSYLSLTPEQWKSHRSYSCQVTHEGSTVEKTVAPTECS
notes: also called human-mouse chimeric monoclonal antibody MT01-L2
EC50 for activation of the NFκB-luciferase reporter gene (human OX40 on cells [1]): 0.0841 µg/mL
IC50 of inhibition of the OX40L-induced activation of NFkB signaling pathway in Jurkat cells (human OX40 on cells [1]): 1.59 µg/mL
EC50 (human OX40 on cells [2]): 2.42 µg/mL
binding result (mouse OX40 on CHO cells): no binding
EC50 (human OX40 protein [3]): 0.208 µg/mL

B2: MT01-L2(G2) (antibody, human IgG2, lambda)
heavy: EVQLVESGGGLVQPKGSLSLSCAASGFTFNTYAMNWVRQAPGKGLEWVARIRSKSNNYATYYADSVKDRFTISRDDSQSMLYLQMTNLKTEDTAMYHCVRSLGRAFVYWGQGTLVTVSSASTKGPSVFPLAPCSRSTSESTAALGCLVKDYFPEPVTVSWNSGALTSGVHTFPAVLQSSGLYSLSSVVTVPSSNFGTQTYTCNVDHKPSNTKVDKTVERKCCVECPPCPAPPVAGPSVFLFPPKPKDTLMISRTPEVTCVVVDVSHEDPEVQFNWYVDGVEVHNAKTKPREEQFNSTFRVVSVLTVVHQDWLNGKEYKCKVSNKGLPAPIEKTISKTKGQPREPQVYTLPPSREEMTKNQVSLTCLVKGFYPSDIAVEWESNGQPENNYKTTPPMLDSDGSFFLYSKLTVDKSRWQQGNVFSCSVMHEALHNHYTQKSLSLSPGK
light: QLVLTQSSSASFSLGASAKLTCTLSSQHSTYIIEWYQQQPLKPPKYVMELKKDGSHSTGEGIPDRFSGSSSGADRYLSISNIQPEDEAIYICGVGNTIKEQFVYVFGGGTKVTVLGQPKANPTVTLFPPSSEELQANKATLVCLISDFYPGAVTVAWKADGSPVKAGVETTKPSKQSNNKYAASSYLSLTPEQWKSHRSYSCQVTHEGSTVEKTVAPTECS
EC50 for activation of the NFκB-luciferase reporter gene (human OX40 on cells [1]): 0.118 µg/mL

B6: MT01-L1(M2) (antibody, human IgG1, kappa, V domains shown)
VH: EVQLQQSGPELVKPGASVKMSCKASGYTFTSYVMHWLKQKPGQGLEWIGYINPYNDGTKYNEKFKGKAKLTSDKSSSTAYMELSSLTSEDSAVYYCANYYGSKFAMDYWGQGTSVTVSS
VL: DIQMTQTTSSLSASLGDRVTISCRASQDISNYLSWYQRKPDGAVKLLIYYTSRLHSGVPSRFSGSGSGADYSLTISNLEQEDIATYFCQQGITLPFTFGGGTKLEIKR
EC50 for activation of the NFκB-luciferase reporter gene (human OX40 on cells [1]): 0.06 µg/mL

B7: MT01-L1(M1/M2) (antibody, human IgG1, kappa, V domains shown)
VH: EVQLQQSGPELVKPGASVKMSCKASGYTFTSYVMHWLKQKPGQGLEWIGYINPYNDATKYNEKFKGKAKLTSDKSSSTAYMELSSLTSEDSAVYYCANYYGSKFAMDYWGQGTSVTVSS
VL: DIQMTQTTSSLSASLGDRVTISCRASQDISNYLSWYQRKPDGAVKLLIYYTSRLHSGVPSRFSGSGSGADYSLTISNLEQEDIATYFCQQGITLPFTFGGGTKLEIKR
EC50 for activation of the NFκB-luciferase reporter gene (human OX40 on cells [1]): 0.128 µg/mL

B9: MT01-L1(G2) (antibody, human IgG2, kappa)
heavy: EVQLQQSGPELVKPGASVKMSCKASGYTFTSYVMHWLKQKPGQGLEWIGYINPYNDGTKYNEKFKGKAKLTSDKSSSTAYMELSSLTSEDSAVYYCANYYGSKFAMDYWGQGTSVTVSSASTKGPSVFPLAPCSRSTSESTAALGCLVKDYFPEPVTVSWNSGALTSGVHTFPAVLQSSGLYSLSSVVTVPSSNFGTQTYTCNVDHKPSNTKVDKTVERKCCVECPPCPAPPVAGPSVFLFPPKPKDTLMISRTPEVTCVVVDVSHEDPEVQFNWYVDGVEVHNAKTKPREEQFNSTFRVVSVLTVVHQDWLNGKEYKCKVSNKGLPAPIEKTISKTKGQPREPQVYTLPPSREEMTKNQVSLTCLVKGFYPSDIAVEWESNGQPENNYKTTPPMLDSDGSFFLYSKLTVDKSRWQQGNVFSCSVMHEALHNHYTQKSLSLSPGK
light: DIQMTQTTSSLSASLGDRVTISCRASQDISNYLSWYQRKPDGAVKLLIYYTSRLHSGVPSRFSGSGSGADYSLTISNLEQEDIATYFCQQGITLPWTFGGGTKLEIKRTVAAPSVFIFPPSDEQLKSGTASVVCLLNNFYPREAKVQWKVDNALQSGNSQESVTEQDSKDSTYSLSSTLTLSKADYEKHKVYACEVTHQGLSSPVTKSFNRGEC
EC50 for activation of the NFκB-luciferase reporter gene (human OX40 on cells [1]): 0.0149 µg/mL

The next lines start with the values.

EC50 of activation on a cell line transfected stably by Jurkat-OX40-NFκB-luciferase reporter (human OX40 on cells [1]): 0.028 µg/mL
EC50 (human OX40 protein [4]): 0.345 µg/mL
B3: MT01-C1 (antibody, human IgG1, kappa)
heavy: not shown
light: DIQMTQSPSSVSASVGDRVTITCRASQDISNYLSWYQQKPGGAVKLLIYYTSRLHSGVPSRFSGSGSGTDYTLTISSLQPEDFATYFCQQGITLPWTFGQGTKVEIKRTVAAPSVFIFPPSDEQLKSGTASVVCLLNNFYPREAKVQWKVDNALQSGNSQESVTEQDSKDSTYSLSSTLTLSKADYEKHKVYACEVTHQGLSSPVTKSFNRGEC
notes: also called humanized monoclonal antibody MT01-C1

EC50 of activation on a cell line transfected stably by Jurkat-OX40-NFκB-luciferase reporter (human OX40 on cells [1]): 0.0434 µg/mL
EC50 (human OX40 protein [4]): 0.39 µg/mL
B4: MT01-C1(G2) (antibody, human IgG2, kappa)
heavy: EVQLVQSGAEVKKPGESLKISCKASGYTFTSYVMHWLRQMPGKGLEWMGYINPYNDGTKYNEKFKGQVTISSDKSISTAYLQWSSLKASDTAMYYCANYYGSKFAMDYWGQGTMVTVSSASTKGPSVFPLAPCSRSTSESTAALGCLVKDYFPEPVTVSWNSGALTSGVHTFPAVLQSSGLYSLSSVVTVPSSNFGTQTYTCNVDHKPSNTKVDKTVERKCCVECPPCPAPPVAGPSVFLFPPKPKDTLMISRTPEVTCVVVDVSHEDPEVQFNWYVDGVEVHNAKTKPREEQFNSTFRVVSVLTVVHQDWLNGKEYKCKVSNKGLPAPIEKTISKTKGQPREPQVYTLPPSREEMTKNQVSLTCLVKGFYPSDIAVEWESNGQPENNYKTTPPMLDSDGSFFLYSKLTVDKSRWQQGNVFSCSVMHEALHNHYTQKSLSLSPGK
light: DIQMTQSPSSVSASVGDRVTITCRASQDISNYLSWYQQKPGGAVKLLIYYTSRLHSGVPSRFSGSGSGTDYTLTISSLQPEDFATYFCQQGITLPWTFGQGTKVEIKRTVAAPSVFIFPPSDEQLKSGTASVVCLLNNFYPREAKVQWKVDNALQSGNSQESVTEQDSKDSTYSLSSTLTLSKADYEKHKVYACEVTHQGLSSPVTKSFNRGEC

EC50 for activation of the NFκB-luciferase reporter gene (human OX40 on cells [1]): 0.0645 µg/mL
B5: MT01-L1(M1) (antibody, human IgG1, kappa, V domains shown)
VH: EVQLQQSGPELVKPGASVKMSCKASGYTFTSYVMHWLKQKPGQGLEWIGYINPYNDATKYNEKFKGKAKLTSDKSSSTAYMELSSLTSEDSAVYYCANYYGSKFAMDYWGQGTSVTVSS
VL: DIQMTQTTSSLSASLGDRVTISCRASQDISNYLSWYQRKPDGAVKLLIYYTSRLHSGVPSRFSGSGSGADYSLTISNLEQEDIATYFCQQGITLPWTFGGGTKLEIKR

EC50 for activation of the NFκB-luciferase reporter gene (human OX40 on cells [1]): 0.0391 µg/mL and 0.0574 µg/mL
IC50 of inhibition of the OX40L-induced activation of NFkB signaling pathway in Jurkat cells (human OX40 on cells [1]): 0.686 µg/mL
EC50 (human OX40 on cells [2]): 1.22 µg/mL
binding result (mouse OX40 on CHO cells): no binding
EC50 (human OX40 protein [3]): 0.291 µg/mL
B8: MT01-L1 (antibody, human IgG1, kappa)
heavy: not shown
light: DIQMTQTTSSLSASLGDRVTISCRASQDISNYLSWYQRKPDGAVKLLIYYTSRLHSGVPSRFSGSGSGADYSLTISNLEQEDIATYFCQQGITLPWTFGGGTKLEIKRTVAAPSVFIFPPSDEQLKSGTASVVCLLNNFYPREAKVQWKVDNALQSGNSQESVTEQDSKDSTYSLSSTLTLSKADYEKHKVYACEVTHQGLSSPVTKSFNRGEC
notes: also called human-mouse chimeric monoclonal antibody MT01-L1
